Test results from US20230331827A1 (MAXION THERAPEUTICS, published 2023).

Target: human cMET (human, UniProt P08581 25-932)
Test: phage TRF on cMET

Sequence of human cMET (P08581 25-932 limits assumed): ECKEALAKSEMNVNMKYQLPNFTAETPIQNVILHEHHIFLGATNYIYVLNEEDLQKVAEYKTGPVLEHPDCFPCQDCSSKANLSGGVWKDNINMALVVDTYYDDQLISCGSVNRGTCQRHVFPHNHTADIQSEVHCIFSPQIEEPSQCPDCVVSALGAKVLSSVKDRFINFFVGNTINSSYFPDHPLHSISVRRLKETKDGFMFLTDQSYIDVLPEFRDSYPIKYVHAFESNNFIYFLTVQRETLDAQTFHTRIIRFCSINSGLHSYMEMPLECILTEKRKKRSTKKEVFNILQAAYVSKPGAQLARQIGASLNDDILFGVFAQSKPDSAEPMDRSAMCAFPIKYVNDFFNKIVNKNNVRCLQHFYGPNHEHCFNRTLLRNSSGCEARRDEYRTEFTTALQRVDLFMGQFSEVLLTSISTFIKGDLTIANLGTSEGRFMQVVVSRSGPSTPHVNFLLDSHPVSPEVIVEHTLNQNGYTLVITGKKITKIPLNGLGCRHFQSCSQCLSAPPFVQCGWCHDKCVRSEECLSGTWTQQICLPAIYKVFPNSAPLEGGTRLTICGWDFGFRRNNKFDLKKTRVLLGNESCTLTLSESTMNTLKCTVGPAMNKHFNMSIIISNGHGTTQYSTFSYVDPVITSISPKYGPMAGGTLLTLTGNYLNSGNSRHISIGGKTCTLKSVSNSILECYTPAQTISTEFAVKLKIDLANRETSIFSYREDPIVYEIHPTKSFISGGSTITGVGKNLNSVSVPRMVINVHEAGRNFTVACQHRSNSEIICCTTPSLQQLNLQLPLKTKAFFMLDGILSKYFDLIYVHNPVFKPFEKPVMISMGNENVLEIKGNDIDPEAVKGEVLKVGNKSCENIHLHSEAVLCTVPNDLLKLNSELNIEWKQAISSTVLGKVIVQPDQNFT

B1: KB_A12_cMET_H08 (scFv, V domains shown)
VH: EVQLVESGGGLVRPGGSLRLSCAASGFTFSSYAMSWVRQAPGKGLEWVSAISGSGGSTYYADSVKGRFTISRDNTKNSLYLQMTSLRADDTAFYYCVKDFGPGYGTGWFDYWGPGTLVTVSS
VL: AVNWYQQLPGKAPKLLIYAAGRCQTGRSGTGRCKQDSDCLAGCVCGPNGFCGANSGVSDRFSAAKSGTSASLAINGLRSEDEADYYCAAWDDSLNGYVFGTGTKLTVLG
- TRF signal: 6730
